Test results reported in article PMC7478166 (Hepatology (Baltimore, Md.), 2020).

Key:
Assay in all cases: BLI
[1] = target: p52Shc lacking the PTB domain (p52ShcΔPTB), terminally biotinylated
[2] = target: T1, p52Shc lacking SH2 domain (p52ShcΔSH2), terminally biotinylated (biotin, terminal (end not stated))
T1 chain: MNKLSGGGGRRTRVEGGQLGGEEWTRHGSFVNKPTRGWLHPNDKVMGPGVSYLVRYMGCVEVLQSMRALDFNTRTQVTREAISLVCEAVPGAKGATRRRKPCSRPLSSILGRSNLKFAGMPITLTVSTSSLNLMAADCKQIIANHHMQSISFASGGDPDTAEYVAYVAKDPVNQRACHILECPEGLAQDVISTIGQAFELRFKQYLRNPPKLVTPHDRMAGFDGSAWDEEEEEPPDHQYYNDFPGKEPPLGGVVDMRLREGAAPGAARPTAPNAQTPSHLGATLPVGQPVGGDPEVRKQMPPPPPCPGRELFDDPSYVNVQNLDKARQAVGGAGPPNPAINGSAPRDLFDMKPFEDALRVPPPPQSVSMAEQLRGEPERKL

[3] = target: T2, non-phosphorylated full size p52Shc (treated with alkaline phosphatase) (UniProt P29353-2 1-473, biotin, terminal (end not stated))
T2 sequence (looked up): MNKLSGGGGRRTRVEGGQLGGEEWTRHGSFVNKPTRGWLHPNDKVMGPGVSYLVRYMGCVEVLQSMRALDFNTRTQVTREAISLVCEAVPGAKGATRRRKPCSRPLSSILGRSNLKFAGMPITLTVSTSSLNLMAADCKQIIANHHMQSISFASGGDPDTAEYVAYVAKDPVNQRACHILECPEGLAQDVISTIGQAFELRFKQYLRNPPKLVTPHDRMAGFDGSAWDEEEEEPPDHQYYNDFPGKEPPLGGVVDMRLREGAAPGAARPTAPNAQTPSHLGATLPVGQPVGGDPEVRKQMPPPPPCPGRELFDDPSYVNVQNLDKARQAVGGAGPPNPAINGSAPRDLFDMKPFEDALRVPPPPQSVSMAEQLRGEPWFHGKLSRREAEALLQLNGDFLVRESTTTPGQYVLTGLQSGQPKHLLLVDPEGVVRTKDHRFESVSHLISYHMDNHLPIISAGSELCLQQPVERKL

[4] = target: T3, full-length p52Shc, terminally biotinylated (UniProt P29353-2 1-473, biotin, terminal (end not stated))
T3 sequence (looked up): T2 sequence (looked up)

Molecule: p47^phox::His (not biotinylated) (from UniProt P14598 1-390) (natural protein)
- fold weaker affinity than full-length p52Shc [1]: 10 fold

B1: p47^phox::His (not biotinylated) (natural protein, UniProt P14598 1-390, looked up)
chain: MGDTFIRHIALLGFEKRFVPSQHYVYMFLVKWQDLSEKVVYRRFTEIYEFHKTLKEMFPIEAGAINPENRIIPHLPAPKWFDGQRAAENRQGTLTEYCSTLMSLPTKISRCPHLLDFFKVRPDDLKLPTDNQTKKPETYLMPKDGKSTATDITGPIILQTYRAIANYEKTSGSEMALSTGDVVEVVEKSESGWWFCQMKAKRGWIPASFLEPLDSPDETEDPEPNYAGEPYVAIKAYTAVEGDEVSLLEGEAVEVIHKLLDGWWVIRKDDVTGYFPSMYLQKSGQDVSQAQRQIKRGAPPRRSSIRNAHSIHQRSRKRLSQDAYRRNSVRFLQQRRRQARPGPQSPGSPLEEERQTQRSKPQPAVPPRPSADLILNRCSESTKRKLASAV
- EC50 [2]: > 50000 nM
- Kd [3]: 780 nM
- Kd [4]: 200 nM
